Reference: the Human Domainome abundance scans (Beltran et al. 2025)
± gives the uncertainty stated by the source.

B1: FERM and PDZ domain-containing protein 4, residues 75 to 154; numbered along this chain, Q14CM0 (parent)
chain: APRKVEMRRDPVLGFGFVAGSEKPVVVRSVTPGGPSEGKLIPGDQIVMINDEPVSAAPRERVIDLVRSCKESILLTVIQP

Variants of: B1
Assay: abundance fitness (aPCA) (normalised: wild type 0, dead -1); higher = more abundant; growth selection in yeast, the domain comes from the species named
Settings: Homo sapiens
In the case of L13W, the abundance fitness is reported as -0.046 ± 0.084.
L13V showed an abundance fitness of -0.003 ± 0.094.
In the case of L13F, the abundance fitness is reported as -0.046 ± 0.17.
Work on L13S yielded an abundance fitness of -0.013 ± 0.094.
Variant G14M has an abundance fitness of -0.404 ± 0.04.
Work on G14W yielded an abundance fitness of -1 ± 0.071.
For G14S, the abundance fitness was -0.273 ± 0.028.
G14T gave an abundance fitness of -0.718 ± 0.044.
Variant G14R has an abundance fitness of -0.496 ± 0.028.
With G14H the abundance fitness was -0.303 ± 0.043.
In the case of G14F, the abundance fitness is reported as -0.822 ± 0.077.
With G14L the abundance fitness was -0.677 ± 0.035.
G14C showed an abundance fitness of -0.502 ± 0.042.
G14K gave an abundance fitness of -0.247 ± 0.04.
Work on G14Y yielded an abundance fitness of -0.761 ± 0.068.
Variant G14P has an abundance fitness of -0.963 ± 0.073.
In the case of G14D, the abundance fitness is reported as -0.025 ± 0.036.
For G14N, the abundance fitness was -0.131 ± 0.044.
With G14V the abundance fitness was -0.779 ± 0.039.
For G14I, the abundance fitness was -0.719 ± 0.062.
In the case of K23C, the abundance fitness is reported as -0.035 ± 0.035.
In the case of K23T, the abundance fitness is reported as -0.037 ± 0.031.
K23H showed an abundance fitness of -0.026 ± 0.043.
Variant K23N has an abundance fitness of 0.015 ± 0.041.
K23V showed an abundance fitness of -0.136 ± 0.026.
With K23A the abundance fitness was -0.097 ± 0.026.
Work on K23W yielded an abundance fitness of -0.076 ± 0.028.
In the case of K23I, the abundance fitness is reported as -0.085 ± 0.05.
Work on K23F yielded an abundance fitness of -0.066 ± 0.04.
With K23D the abundance fitness was -0.042 ± 0.039.
Work on K23L yielded an abundance fitness of -0.066 ± 0.025.
K23Q gave an abundance fitness of -0.039 ± 0.034.
Work on K23M yielded an abundance fitness of -0.01 ± 0.032.
K23P gave an abundance fitness of -0.317 ± 0.033.
In the case of F17G, the abundance fitness is reported as -0.897 ± 0.032.
In the case of F17A, the abundance fitness is reported as -0.857 ± 0.041.
F17T gave an abundance fitness of -0.887 ± 0.054.
With F17N the abundance fitness was -0.923 ± 0.098.
Variant F17M has an abundance fitness of -0.381 ± 0.035.
F17V showed an abundance fitness of -0.704 ± 0.031.
Variant F17K has an abundance fitness of -0.842 ± 0.051.
F17P gave an abundance fitness of -0.916 ± 0.066.
Work on F17L yielded an abundance fitness of -0.294 ± 0.026.
With F17W the abundance fitness was -0.218 ± 0.026.
In the case of F17C, the abundance fitness is reported as -0.637 ± 0.044.
Work on F17Y yielded an abundance fitness of -0.395 ± 0.052.
With F17H the abundance fitness was -0.806 ± 0.074.
Work on F17D yielded an abundance fitness of -0.921 ± 0.077.
Work on F17I yielded an abundance fitness of -0.322 ± 0.043.
In the case of F17E, the abundance fitness is reported as -0.832 ± 0.043.
For S21D, the abundance fitness was -0.003 ± 0.036.
S21G gave an abundance fitness of 0.043 ± 0.022.
With S21L the abundance fitness was -0.049 ± 0.026.
Work on S21H yielded an abundance fitness of -0.028 ± 0.048.
With S21A the abundance fitness was 0.005 ± 0.025.
S21M showed an abundance fitness of -0.033 ± 0.034.
Work on S21T yielded an abundance fitness of -0.12 ± 0.031.
S21R showed an abundance fitness of -0.082 ± 0.022.
Work on S21F yielded an abundance fitness of -0.021 ± 0.037.
In the case of S21P, the abundance fitness is reported as -0.169 ± 0.031.
Work on S21N yielded an abundance fitness of -0.002 ± 0.047.
Work on S21W yielded an abundance fitness of -0.088 ± 0.027.
S21V showed an abundance fitness of -0.25 ± 0.026.
For S21K, the abundance fitness was -0.009 ± 0.033.
S21I showed an abundance fitness of -0.234 ± 0.059.
For S21C, the abundance fitness was -0.047 ± 0.033.
Variant P11F has an abundance fitness of -0.329 ± 0.046.
Work on P11R yielded an abundance fitness of -0.123 ± 0.021.
For P11I, the abundance fitness was -0.162 ± 0.042.
With P11Q the abundance fitness was -0.131 ± 0.03.
Work on P11G yielded an abundance fitness of -0.128 ± 0.021.
In the case of P11W, the abundance fitness is reported as -0.405 ± 0.029.
P11L showed an abundance fitness of -0.143 ± 0.023.
For P11V, the abundance fitness was -0.247 ± 0.026.
P11D gave an abundance fitness of -0.063 ± 0.048.
Work on P11T yielded an abundance fitness of -0.111 ± 0.029.
With P11E the abundance fitness was -0.117 ± 0.031.
Variant P11N has an abundance fitness of -0.157 ± 0.043.
In the case of P11H, the abundance fitness is reported as -0.208 ± 0.054.
P11K gave an abundance fitness of -0.09 ± 0.031.
In the case of P11A, the abundance fitness is reported as -0.137 ± 0.028.
With P11Y the abundance fitness was -0.391 ± 0.085.
Work on P11C yielded an abundance fitness of -0.243 ± 0.033.
P11M showed an abundance fitness of -0.148 ± 0.031.
F15M showed an abundance fitness of -0.392 ± 0.04.
Work on F15C yielded an abundance fitness of -0.758 ± 0.061.
Variant F15H has an abundance fitness of -0.828 ± 0.089.
Work on F15Q yielded an abundance fitness of -0.776 ± 0.048.
F15N showed an abundance fitness of -0.848 ± 0.094.
Work on F15A yielded an abundance fitness of -0.729 ± 0.034.
For F15W, the abundance fitness was -0.057 ± 0.029.
Variant F15Y has an abundance fitness of -0.039 ± 0.043.
F15R showed an abundance fitness of -0.911 ± 0.036.
In the case of F15V, the abundance fitness is reported as -0.815 ± 0.037.
For F15I, the abundance fitness was -0.702 ± 0.087.
Work on F15K yielded an abundance fitness of -0.905 ± 0.067.
With F15S the abundance fitness was -0.777 ± 0.035.
Work on F15L yielded an abundance fitness of -0.26 ± 0.025.
In the case of F15P, the abundance fitness is reported as -0.857 ± 0.047.
In the case of F15D, the abundance fitness is reported as -0.781 ± 0.063.
F15E gave an abundance fitness of -0.805 ± 0.045.
Variant F15T has an abundance fitness of -0.819 ± 0.053.
In the case of V27S, the abundance fitness is reported as -0.947 ± 0.053.
With V27A the abundance fitness was -0.591 ± 0.033.
V27G gave an abundance fitness of -0.938 ± 0.032.
With V27P the abundance fitness was -0.764 ± 0.058.
Variant V27Y has an abundance fitness of -1.02 ± 0.17.
With V27E the abundance fitness was -0.725 ± 0.043.
In the case of V27N, the abundance fitness is reported as -0.851 ± 0.099.
Variant V27M has an abundance fitness of -0.799 ± 0.063.
Work on V27K yielded an abundance fitness of -0.916 ± 0.073.
V27F gave an abundance fitness of -0.79 ± 0.092.
Work on V27W yielded an abundance fitness of -1.1 ± 0.068.
Work on V27R yielded an abundance fitness of -0.958 ± 0.037.
V27D gave an abundance fitness of -0.802 ± 0.065.
Work on V27C yielded an abundance fitness of -0.282 ± 0.038.
V27T gave an abundance fitness of -0.705 ± 0.053.
V27L gave an abundance fitness of -0.584 ± 0.031.
In the case of V27H, the abundance fitness is reported as -0.878 ± 0.14.
V27I showed an abundance fitness of -0.07 ± 0.039.
With G16T the abundance fitness was -0.946 ± 0.061.
Work on G16I yielded an abundance fitness of -1.32 ± 0.2.
For G16F, the abundance fitness was -1.03 ± 0.13.
Variant G16Q has an abundance fitness of -0.889 ± 0.066.
Variant G16K has an abundance fitness of -0.911 ± 0.066.
In the case of G16R, the abundance fitness is reported as -1.04 ± 0.042.
For G16V, the abundance fitness was -1.08 ± 0.049.
In the case of G16Y, the abundance fitness is reported as -1.3 ± 0.27.
Work on G16L yielded an abundance fitness of -1.15 ± 0.066.
Variant G16N has an abundance fitness of -0.677 ± 0.099.
Work on G16P yielded an abundance fitness of -0.977 ± 0.063.
In the case of G16H, the abundance fitness is reported as -1.01 ± 0.14.
With G16A the abundance fitness was -0.499 ± 0.027.
Work on G16S yielded an abundance fitness of -0.813 ± 0.039.
For G16C, the abundance fitness was -0.956 ± 0.074.
With G16D the abundance fitness was -0.783 ± 0.057.
With V30C the abundance fitness was -0.102 ± 0.031.
Work on V30E yielded an abundance fitness of -0.901 ± 0.048.
V30A showed an abundance fitness of -0.499 ± 0.026.
With V30D the abundance fitness was -0.804 ± 0.065.
E22Q gave an abundance fitness of -0.029 ± 0.035.
Work on E22M yielded an abundance fitness of -0.22 ± 0.035.
In the case of E22C, the abundance fitness is reported as -0.074 ± 0.034.
With E22K the abundance fitness was -0.199 ± 0.035.
Variant E22Y has an abundance fitness of -0.012 ± 0.044.
E22T gave an abundance fitness of -0.156 ± 0.034.
E22G showed an abundance fitness of -0.026 ± 0.021.
E22V gave an abundance fitness of -0.066 ± 0.024.
With E22P the abundance fitness was -0.979 ± 0.086.
In the case of E22S, the abundance fitness is reported as -0.126 ± 0.025.
For E22I, the abundance fitness was -0.336 ± 0.05.
For E22N, the abundance fitness was -0.125 ± 0.048.
In the case of E22W, the abundance fitness is reported as -0.305 ± 0.029.
In the case of E22L, the abundance fitness is reported as -0.315 ± 0.028.
Work on E22A yielded an abundance fitness of -0.075 ± 0.024.
For E22H, the abundance fitness was -0.202 ± 0.051.
R9S showed an abundance fitness of -0.152 ± 0.025.
R9W showed an abundance fitness of -0.089 ± 0.028.
R9V gave an abundance fitness of -0.217 ± 0.024.
Work on R9Y yielded an abundance fitness of -0.089 ± 0.064.
R9T showed an abundance fitness of -0.277 ± 0.03.
V26Q showed an abundance fitness of -0.011 ± 0.03.
For V26A, the abundance fitness was -0.113 ± 0.025.
Work on V26Y yielded an abundance fitness of -0.123 ± 0.043.
For V26S, the abundance fitness was -0.116 ± 0.025.
With V26I the abundance fitness was -0.025 ± 0.043.
In the case of V26P, the abundance fitness is reported as -0.702 ± 0.042.
